Patent US20160223554A1, “METHODS FOR DIAGNOSIS, PROGNOSIS AND METHODS OF TREATMENT” (priority 2011, published 2016)

B1: FLT3L: fms-like tyrosine kinase receptor-3 ligand (protein, UniProt P49771 27-235, looked up)
Fms-related tyrosine kinase 3 …: TQDCSFQHSPISSDFAVKIRELSDYLLQDYPVTVASNLQDEELCGGLWRLVLAQRWMERLKTVAGSKMQGLLERVNTEIHFVTKCAFQPPPSCLRFVQTNISRLLQETSEQLVALKPWITRQNFSRCLELQCQPDSSTLPPPWSPRPLEATAPTAPQPPLLLLLLLPVGLLLLAAAWCLHWQRTRRRTPRPGEQVPPVPSPQDLLLVEH
B2: IL-27: interleukin-27, cytokine modulator (protein, UniProt Q8NEV9 29-243; Q14213 21-229, looked up)
Interleukin-27 subunit alpha: FPRPPGRPQLSLQELRREFTVSLHLARKLLSEVRGQAHRFAESHLPGVNLYLLPLGEQLPDVSLTFQAWRRLSDPERLCFISTTLQPFHALLGGLGTQGRWTNMERMQLWAMRLDLRDLQRHLRFQVLAAGFNLPEEEEEEEEEEEEERKGLLPGALGSALQGPAQVSWPQLLSTYRLLHSLELVLSRAVRELLLLSKAGHSVWPLGFPTLSPQP
Interleukin-27 subunit beta: RKGPPAALTLPRVQCRASRYPIAVDCSWTLPPAPNSTSPVSFIATYRLGMAARGHSWPCLQQTPTSTSCTITDVQLFSMAPYVLNVTAVHPWGSSSSFVPFITEHIIKPDPPEGVRLSPLAERQLQVQWEPPGSWPFPEIFSLKYWIRYKRQGAARFHRVGPIEATSFILRAVRPRARYYVQVAAQDLTDYGELSDWSLPATATMSLGK
B3: G-CSF: granulocyte colony-stimulating factor (protein, UniProt P09919 31-207, looked up)
Granulocyte …: TPLGPASSLPQSFLLKCLEQVRKIQGDGAALQEKLVSECATYKLCHPEELVLLGHSLGIPWAPLSSCPSQALQLAGCLSQLHSGLFLYQGLLQALEGISPELGPTLDTLQLDVADFATTIWQQMEELGMAPALQPTQGAMPAFASAFQRRAGGVLVASHLQSFLEVSYRVLRHLAQP

Experiments:
AML blasts = assay: SCNP phospho-flow signaling nodes in AML PBMC (Example 2, Study No. 1); format: cell-based, human; conditions: for Mean Value of CRs: CR patients; for Mean Value of CRs / Mean Value of NRs: Study No. 1; for Mean Value of NRs: NR patients
Experimental: Frozen cells are thawed in a 37° C. water bath and gently resuspended in the vial and transferred to the 15 mL conical tube. The 15 mL tube is centrifuged at 930 RPM (200×g) for 8 minutes at room temperature. The supernatant is aspirated and the pellet is gently resuspended in 1 mL media A. The cell suspension is filtered through a 70 um cell strainer into a new 15 mL tube. The cell strainer is rinsed with 1 mL media A and another 12 ml of media A into the 15 mL tube. The cells are mixed into an even suspension. A 20 μL aliquot is immediately removed into a 96-well plate containing 180 μL PBS+4% FBS+CD45 Alexa 700+PI to determine cell count and viability post spin. After the determination, the 15 mL tubes are centrifuged at 930 RPM (200×g) for 8 minutes at room temperature. The supernatant is aspirated and the cell pellet is gently resuspended in 4 mL PBS+4 μL Amine Aqua and incubated for 15 min in a 37° C. incubator. 10 mL RPMI+1% FBS is added to the cell suspension and the tube is inverted to mix the cells. The 15 mL tubes are centrifuged at 930 RPM (200×g) for 8 minutes at room temperature. The cells are resuspended in Media A at the desired cell concentration (1.25×10^6/mL). For samples with low numbers of cells (<18.5×10^6), the cells are resuspended in up to 15 mL media. For samples with high numbers of cells (>18.5×10^6), the volume is raised to 10 mL with media A and the desired volume is transferred to a new 15 mL tube, and the cell concentration is adjusted to 1.25×10^6 cells/ml. 1.6 mL of the above cell suspension (concentration at 1.25×10^6 cells/ml) is transferred into wells of a multi-well plate. From this plate, 80 ul is dispensed into each well of a subsequent plate. The plates are covered with a lid (Nunc) and placed in a 37° C. incubator for 2 hours to rest.
A concentration for each stimulant that is five folds more (5×) than the final concentration is prepared using Media A as diluent. 5× stimuli are arrayed into wells of a standard 96 well v-bottom plate that correspond to the wells on the plate with cells to be stimulated.
Adding the stimulant: The cell plate(s) are taken out of the incubator and placed in a 37° C. water bath next to the pipette apparatus. The cell plate is taken from the water bath and gently swirled to resuspend any settled cells. With pipettor, the stimulant is dispensed into the cell plate and vortexed at “7” for 5 seconds. The deep well plate is put back into the water bath.
The plate is covered with foil sealer and incubated in a 37° C. water bath for 10 minutes. The plate is spun for 6 minutes at 2000 rpm at room temperature. The cells are aspirated using a 96 well plate aspirator (VP Scientific). The plate is vortexed to resuspend cell pellets in the residual volume. The pellet is ensured to be dispersed before the Methanol step (see cell permeabilization) or clumping will occur.
Cell Permeabilization: Permeability agent, for example methanol, is added slowly and while the plate is vortexing. To do this, the cell plate is placed on titer plate shaker and made sure it is secure. The plate is set to shake using the highest setting. A pipetter is used to add 0.6 mls of 100% methanol to the plate wells. The plate(s) are put on ice until this step has been completed for all plates. Plates are covered with a foil seal using the plate roller to achieve a tight fit. At this stage the plates can be stored at −80° C.
Cells are thawed if frozen. Cells are pelleted at 2000 rpm 5 minutes. Supernatant is aspirated with vacuum aspirator. Plate is vortexed on a “plate vortex” for 5-10 seconds. Cells are washed with 1 mL FACS buffer. Repeat the spin, aspirate and vortex steps as above. 50 μL of FACS/stain buffer with the desired, previously optimized, antibody cocktail is added to two rows of cells at a time and agitate the plate. The plate is covered and incubated in a shaker for 30 minutes at room temperature (RT). During this incubation, the compensation plate is prepared.

[1] = tested on: elderly pts with untreated AML; conditions: cited from earlier work
[2] = Fold = log2(MFI modulated) - log2(MFI unmodulated), 9 CRs, Study No.1
[3] = Fold = log2(MFI modulated) - log2(MFI unmodulated), 25 NRs, Study No.1
[4] = Fold metric, Study No. 1, CRp patient included in NR group
[5] = Total Phospho metric, Study No. 1, CRp patient included in NR group
[6] = read-out p-CREB, metric TotalPhospho
[7] = read-out p-Erk, metric TotalPhospho
[8] = read-out p-Plcγ2, metric TotalPhospho
[9] = read-out p-Stat1, metric TotalPhospho
[10] = read-out p-Stat3, metric TotalPhospho

| Molecule | p-Akt Fold, Mean Value of CRs (AML blasts; [2]) | p-Akt Fold, Mean Value of NRs (AML blasts; [3]) | Mean Value of CRs, p-Akt (AML blasts; [4]) | Mean Value of CRs, p-Erk (AML blasts; [4]) | Mean Value of NRs, p-Akt (AML blasts; [4]) | Mean Value of NRs, p-Erk (AML blasts; [4]) | Mean Value of CRs, p-CREB (AML blasts; [5]) | Mean Value of CRs, p-Plcγ2 (AML blasts; [5]) | Mean Value of NRs, p-CREB (AML blasts; [5]) | Mean Value of NRs, p-Plcγ2 (AML blasts; [5]) | Mean Value of CRs (AML blasts; read-out p-Akt, metric Fold) | Mean Value of NRs (AML blasts; read-out p-Akt, metric Fold) | Mean Value of CRs (AML blasts; [6]) | Mean Value of NRs (AML blasts; [6]) | Mean Value of CRs (AML blasts; [8]) | Mean Value of NRs (AML blasts; [8]) | Mean Value of CRs, p-Stat3 (AML blasts; [5]) | Mean Value of NRs, p-Stat3 (AML blasts; [5]) | Mean Value of CRs (AML blasts; [10]) | Mean Value of NRs (AML blasts; [10]) | further results |
| --- | --- | --- | --- | --- | --- | --- | --- | --- | --- | --- | --- | --- | --- | --- | --- | --- | --- | --- | --- | --- | --- |
| SCF: stem cell factor, ligand of c-Kit | 0.12 | 0.57 | 0.09 | −0.06 | 0.56 | 0.11 | 1.32 | 1.80 | 1.92 | 2.79 | 0.12 | 0.57 | 1.38 | 1.92 | 1.87 | 2.81 |  |  |  |  | Mean Value of CRs (AML blasts; read-out p-Erk, metric Fold): −0.05; Mean Value of NRs (AML blasts; read-out p-Erk, metric Fold): 0.11; Mean Value of CRs (AML blasts; [7]): 1.87; Mean Value of NRs (AML blasts; [7]): 2.28 |
| B1 | 0.18 | 0.64 | 0.10 | 0.08 | 0.65 | 0.33 | 1.39 | 1.81 | 2.13 | 2.78 | 0.18 | 0.64 | 1.50 | 2.12 | 1.88 | 2.80 |  |  |  |  | p-S6 Fold, Mean Value of CRs (AML blasts; [2]): 0.28; p-S6 Fold, Mean Value of NRs (AML blasts; [3]): 0.81; Mean Value of CRs, p-CREB (AML blasts; [4]): 0.07; Mean Value of CRs, p-Plcγ2 (AML blasts; [4]): −0.14; Mean Value of CRs, p-S6 (AML blasts; [4]): 0.14; Mean Value of NRs, p-CREB (AML blasts; [4]): 0.36; Mean Value of NRs, p-Plcγ2 (AML blasts; [4]): −0.08; Mean Value of NRs, p-S6 (AML blasts; [4]): 0.83; Mean Value of CRs (AML blasts; read-out p-S6, metric Fold): 0.28; Mean Value of NRs (AML blasts; read-out p-S6, metric Fold): 0.81 |
| B2 |  |  |  |  |  |  | 1.25 |  | 2.36 |  |  |  | 1.40 | 2.35 |  |  | 1.01 | 1.85 | 1.07 | 1.86 | Mean Value of CRs, p-Stat1 (AML blasts; [5]): 0.39; Mean Value of NRs, p-Stat1 (AML blasts; [5]): 0.81; Mean Value of CRs (AML blasts; [9]): 0.41; Mean Value of NRs (AML blasts; [9]): 0.82 |
| B3 |  |  |  |  |  |  |  |  |  |  |  |  |  |  |  |  | 1.40 | 2.74 | 1.66 | 2.70 | p-Stat5 Fold, Mean Value of CRs (AML blasts; [2]): 0.47; p-Stat5 Fold, Mean Value of NRs (AML blasts; [3]): 1.13; Mean Value of CRs, p-Stat3 (AML blasts; [4]): 0.60; Mean Value of CRs, p-Stat5 (AML blasts; [4]): 0.33; Mean Value of NRs, p-Stat3 (AML blasts; [4]): 1.52; Mean Value of NRs, p-Stat5 (AML blasts; [4]): 1.15; Mean Value of CRs (AML blasts; read-out p-Stat5, metric Fold): 0.47; Mean Value of NRs (AML blasts; read-out p-Stat5, metric Fold): 1.13; Med RFS ([1]; SWOG-9031, by arm (NS)): 9 mo; G-CSF: 8; CR Rates ([1]; SWOG-9031, by arm, added to Ara-C/DNR induction, p = 0.89): G-CSF: 41%; Med. OS ([1]; SWOG-9031, by arm, p = .71): G-CSF: 6 mos. |
